Data on four substances can be found in patent US20210171580.

Data set [1] concerns M401 (synthetic (M160-nuc A339E)). Description: cleavage_in_vitro. As to conditions: relative to Pfu polymerase, 37 C, 4 mM MgCl2.
The test system of data set [2] is M402 (synthetic (M160-nuc with G46D and 3'-5' exo reactivated)). Description: cleavage_in_vitro. The note with it: relative to Pfu polymerase, 37 C, 4 mM MgCl2.
Data set [3] concerns M160-nuc (synthetic (shuffled viral polymerase fused to Taq 5'-3' nuclease domain)). As to conditions: reference.
Data set [4] has as its system M403 (synthetic (M160-nuc, both nucleases inactive)). As to conditions: vs M160-nuc.
Data set [5] has as its system M401 (synthetic (M160-nuc A339E)). As to conditions: vs M160-nuc.
Data set [6] has as its system M402 (synthetic (M160-nuc with G46D and 3'-5' exo reactivated)). The note with it: vs M160-nuc.
The subject of data set [7] is M160 (synthetic (shuffled viral Family A DNA polymerase)). The data set is described as follows: EMSA. The note with it: 20 mM Tris pH 8.8, 10 mM NaCl, 5 mM MgCl2, 37 C; lacks 5' nuclease domain. In general terms: Mobility shift assays separate free from complexed probe on a gel.
Data set [8] has as its system M160-nuc (synthetic (shuffled viral polymerase fused to Taq 5'-3' nuclease domain)). The data set is described as follows: EMSA. The note with it: 20 mM Tris pH 8.8, 10 mM NaCl, 5 mM MgCl2, 37 C.
Data set [9] concerns M502 (synthetic (M160-nuc mutant W777C D781A D622N Q627N)). The data set is described as follows: EMSA. The note with it: 20 mM Tris pH 8.8, 10 mM NaCl, 5 mM MgCl2, 37 C; at assay sensitivity limit.
Chain of M502 (synthetic (M160-nuc mutant W777C D781A D622N Q627N)) (chain, as listed by the source W777C D781A D622N Q627N): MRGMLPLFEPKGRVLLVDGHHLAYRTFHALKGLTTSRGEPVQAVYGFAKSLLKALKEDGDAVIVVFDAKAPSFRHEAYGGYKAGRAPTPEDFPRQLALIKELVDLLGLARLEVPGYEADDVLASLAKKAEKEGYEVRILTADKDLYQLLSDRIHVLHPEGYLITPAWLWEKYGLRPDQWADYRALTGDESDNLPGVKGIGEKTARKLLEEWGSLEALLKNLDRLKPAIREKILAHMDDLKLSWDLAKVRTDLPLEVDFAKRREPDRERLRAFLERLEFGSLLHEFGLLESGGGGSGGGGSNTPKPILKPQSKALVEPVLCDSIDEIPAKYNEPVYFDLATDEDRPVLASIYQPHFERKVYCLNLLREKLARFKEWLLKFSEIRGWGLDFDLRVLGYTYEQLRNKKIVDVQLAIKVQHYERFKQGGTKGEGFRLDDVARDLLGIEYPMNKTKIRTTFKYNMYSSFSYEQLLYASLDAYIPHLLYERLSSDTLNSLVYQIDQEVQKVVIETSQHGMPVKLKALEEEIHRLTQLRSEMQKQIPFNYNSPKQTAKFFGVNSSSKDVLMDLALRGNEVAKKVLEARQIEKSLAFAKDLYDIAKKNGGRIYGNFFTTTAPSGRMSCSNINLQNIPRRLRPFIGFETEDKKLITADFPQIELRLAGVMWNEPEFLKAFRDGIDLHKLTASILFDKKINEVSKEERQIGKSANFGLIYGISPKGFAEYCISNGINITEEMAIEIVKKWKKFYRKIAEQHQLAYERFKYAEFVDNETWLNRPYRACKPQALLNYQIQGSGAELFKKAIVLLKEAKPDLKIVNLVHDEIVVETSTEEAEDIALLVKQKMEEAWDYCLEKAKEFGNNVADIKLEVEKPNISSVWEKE
Setting [10] is: 50 C, substrate taken from general RT assay.
[11] abbreviates: substrate taken from general polymerase assay.

Chain of M402 (synthetic (M160-nuc with G46D and 3'-5' exo reactivated)) (chain, as listed by the source G46D): as the sequence (chain, as listed by the source W777C D781A D622N Q627N) above, with G46D, A339E, N622D, N627Q, C777W, A781D counted along it
Chain of M401 (synthetic (M160-nuc A339E)) (chain, as listed by the source A339E): as the sequence (chain, as listed by the source W777C D781A D622N Q627N) above, with A339E, N622D, N627Q, C777W, A781D counted along it
Chain of M403 (synthetic (M160-nuc, both nucleases inactive)) (chain, as listed by the source): as the sequence (chain, as listed by the source W777C D781A D622N Q627N) above, with G46D, N622D, N627Q, C777W, A781D counted along it

Regarding 59-mer single-stranded oligonucleotide, the relative enzyme activity (relative ssExo activity) came to 0.76 in data set [1] and 0.89 in data set [2].

With poly(A)/oligo(dT)20, the relative enzyme activity (relative RT activity) in data set [3] (50 C) was 1; in [4] (setting [10]), 1.03; in data set [5] (setting [10]), 1.02; in data set [6] (setting [10]), 0.98.

For primed M13mp18 DNA, the relative enzyme activity (relative pol activity) came out at 1 in [3] (setting [11]), 0.72 in data set [4] (setting [11]), 0.91 in [5] (setting [11]) and 1.05 in data set [6] (setting [11]).

As to “primed-template DNA (Yamagami et al. 2014)”, the Kd – broadly, a measure of binding affinity in units of concentration – in data set [7] was 946 nM; in [8], 78.9 nM; in [9], less than 6.1 nM.
